Laboratory results as given in the supplement of paper PMC10567573.

B1: NCK2 (parent)
chain: YVERKNSLKKGSLVKNLKDTLGLG
B2: NECAB1 (parent)
chain: FSPNSPQFNVSGPGLLEEDNQWMT

Variants of: B1
Test: protein stability index of a GFP-peptide fusion (GPS, HEK-293T) (PSI 1-6); higher = more stable
Details: c terminus: a fixed tail appended
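Note: lentivirally expressed fusions sorted by FACS into six bins by GFP to DsRed ratio, PSI derived from sequencing read proportions per bin multiplied by bin number.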

Variant	protein stability index
V14P	2.3
V14C	2.08
N6M	2.29
N6D	2.74
G22S	2.13
L17T	2.79
L17V	2.8
L17K	3
L17R	2.58
L17P	2.13
L13W	2.04
L13V	2.64
L13Y	2.52
L8Q	2.88
L8M	2.57
L8N	2.55
L8S	1.99
S12K	2.71
S12D	2.79
S12H	1.98
S12Q	2.27
R4H	2.6
R4Q	2.2
K5T	2.02
L23E	2.86
L23F	2.52
T20L	2.07

Variant	protein stability index
K15G	2.49
K15W	1.98
K15I	1.77
K15H	2.23
K9A	2.15
K9T	2.17
K9C	1.94
K9G	2.39
K9W	2.37
K10Q	2.59
E3V	1.9
E3D	1.89
K18F	1.33
K18Y	2.41
K18D	2.39
L21H	2.3
G11T	2.06
G11D	2.44
G24T	2.36
G24N	1.98
Y1K	3.86
Y1L	3.28
N16V	1.83
N16H	2.28
N16L	2.14
N16C	2.1

Variants of: B2
Test: as above
Details: c terminus: a fixed tail appended

Variant	protein stability index
F1M	4.7
F1D	4.53
F1W	3.85
F1R	4.33
F1L	4.55
F1H	4.23
F1T	4.11
F1N	4.63
F1Q	4.7
F1P	4.51
F1K	4.43
F1G	4.4
Q7A	1.92
Q7Y	1.72
Q7G	2.74
Q7E	3.88
Q7L	1.45
Q7I	2.11
Q7T	3.09
Q7P	2.9
Q7N	2.89
Q7V	2.22
Q7F	2.59
Q7M	2.02

Variant	protein stability index
S2I	1.76
S2E	4.58
S2Q	2.95
S2L	3.37
S2R	3.65
S2F	3.06
S2W	2.58
S2T	2.23
S2P	2.47
S2N	3.28
S2K	3.63
P6G	2.34
P6Y	1.92
P6W	4.26
P6V	2.56
P6R	2.05
P6C	2.26
P6A	2.95
P6H	2.14
P6L	2.51
P6N	2.56
E18S	1.88
E18W	2.14
E18V	2.31

Variant	protein stability index
E18L	2.03
E18M	2.65
E18K	3.2
E18R	2.14
E18T	2.23
E18Q	1.97
E18N	2.83
E18F	2.61
E18A	2.82
E18D	2.91
E18G	2.02
E18H	2.39
E18I	2.4
P3K	3.11
P3Y	2.62
P3I	3.33
P3V	2.88
P3F	2.59
P3N	2.76
P3R	2.88
P3H	3.17
P3T	3.05
P3D	2.24
P3S	2.68

Variant	protein stability index
N9I	2.05
N9W	2.41
N9R	2.32
N9Y	3.54
N9A	2.35
N9D	3.67
N9H	2.22
N9T	2.62
N9K	2.84
N9P	3.06
N9G	3.23
Q21N	1.84
Q21G	2.54
Q21H	2.57
Q21F	1.87
Q21K	3.06
Q21T	2.41
Q21P	2
Q21Y	2.29
Q21D	1.97
D19G	2.33
D19F	2.12
D19Q	2.5
D19I	2.55

Variant	protein stability index
D19K	2.18
D19T	2.1
D19P	2.03
D19V	2.1
D19H	2.79
D19M	2.57
D19W	2.02
D19S	2.33
D19Y	2.44
D19C	2.72
F8R	3.65
F8I	3.26
F8H	3.77
F8A	4.17
F8C	3.42
F8W	1.43
F8T	3.5
F8N	4.29
F8Q	3.79
F8G	3.83
F8M	3.65
N20A	3.29
N20F	2.71
N20G	2.79

Variant	protein stability index
N20S	2.68
N20W	2.46
N20Q	2.84
N20D	3.86
N20L	2.27
N4F	2.4
N4G	2.53
N4L	2.64
N4A	3.25
N4T	3.2
N4W	2.25
N4R	2.82
N4H	2.53
N4I	2.67
N4K	2.98
G14Y	2.22
G14A	3.44
G14M	2.35
G14T	2.52
G14P	3.17
G14C	3.32
G14E	3.58
G14L	2.62
G14I	2.29

Variant	protein stability index
G14N	2.89
G14D	3.73
G14V	2.89
G14H	2.47
L15K	2.97
L15E	3.46
L15F	2.91
L15P	2.98
L15D	3.7
L15Q	3.06
L15N	3.27
L15V	3.23
L15Y	3.05
L15M	3.22
L15S	3.3
L15I	2.98
V10T	2.89
V10H	3.63
V10R	3.38
V10W	1.87
V10N	3.68
V10C	2.42
V10I	3.09
V10Q	3.32

Variant	protein stability index
V10Y	2.89
V10S	3.19
V10E	4.16
V10K	2.94
V10L	2.74
S5A	2.72
S5C	3
S5H	3.16
S5P	3.39
S5I	2.75
S5L	2.93
S5E	3.82
S5G	2.72
P13Y	2.75
P13Q	3.12
P13M	2.65
P13H	2.62
P13S	3.02
P13A	3.15
P13C	2.49
P13L	2.39
P13V	2.75
P13T	3.32
P13I	3.27

Variant	protein stability index
P13F	2.29
P13W	1.7
P13K	2.71
E17R	2.86
E17L	2.29
E17F	1.69
E17K	1.97
E17M	2.54
E17V	2.33
E17G	2.49
E17W	2.82
E17A	2.4
E17Q	3.13
E17S	2.98
E17D	2.74
E17H	2.72
E17C	2.04
E17I	2.53
G12N	2.77
G12D	3.13
G12T	3.22
G12A	2.85
G12M	3.18
G12K	2.85

Variant	protein stability index
G12V	2.86
G12I	2.42
G12R	2.7
G12W	1.74
W22I	3.67
W22V	3.79
W22G	3.85
W22N	4.07
W22F	3.59
W22A	3.96
W22P	4.21
W22Q	4.03
W22D	4.65
W22K	3.54
L16W	2.25
L16G	2.73
L16N	2.97
L16H	3.98
L16M	2.66
L16F	2.42
L16C	3.03
L16T	3.53
L16E	4
L16D	3.94

Variant	protein stability index
L16R	3.12
L16K	2.94
L16A	3.29
L16P	3.52
L16Y	2.73
S11I	2.9
S11R	2.62
S11K	2.44
S11A	3.02
S11E	3.4
S11V	2.51
S11D	3.73
S11H	2.5
S11L	2.91
S11Y	1.95
S11G	2.76
S11Q	3.09
S11F	2
S11M	2.16
M23E	4.15
M23D	4.65
M23V	2.71
M23F	2.44
M23P	2.87

Variant	protein stability index
M23K	4.15
M23R	3.08
M23L	2.76
M23C	2.67
M23Q	3.43
T24W	1.69
T24Y	2.57
T24Q	3.04
T24F	1.88
T24K	2.37
T24I	2.69
T24G	3.01
T24H	2.99
T24N	2.84
T24V	2.36
T24D	3.57
T24S	3.27
